The target of assay [1] is T1, soluble human FcRn (shFcRn) (human, UniProt P55899 24-297; P61769 21-119).
T1 construct: Biotinylated for the ELISA, amine-coupled to a CM5 chip for SPR; also called biotinylated shFcRn
Description: SPR pH 6.
Description: (§1) The following steps were performed to cross-link soluble human or cynomolgus FcRn to the dextran surface of a CM5 sensor chip (Biacore AB, Uppsala, Sweden) by an amine coupling reaction involving 1-ethyl-(3-dimethylaminopropyl)-carbodiimide hydrochloride (EDC) (Biacore AB, Uppsala, Sweden) and N-hydroxysuccinimide (NHS) (Biacore AB, Uppsala, Sweden) as recommended by Biacore (BIAapplications Handbook, version AB, section 4.2, Biacore AB, Uppsala, Sweden). […] Residual sites on the FcRn flow cell were blocked with 1 M ethanolamine hydrochloride pH 8.5 (Biacore AB, Uppsala, Sweden). A control flow cell was blocked with ethanolamine for reference subtraction. For analysis of the monomeric peptides, FcRn was coated to a final density of 4000-5000 response units (RU). For analysis of the peptide dimers, FcRn was coated to a density of 2000-2500 RU. All SPR measurements were performed using a BIACORE 3000 Instrument (Biacore AB Uppsala, Sweden). For measurements done at either pH 6 or pH 7.4, experiments were performed in 50 mM phosphate, 100 mM sodium chloride, 0.01% surfactant P20 (Biacore AB, Uppsala, Sweden).
(§2) Ten, 2-fold dilutions of the peptide were injected over the FcRn-CM5 chip at a rate of 20 μl/min for 2 min. The peptide was dissociated from the chip for 2.5 minutes with buffer. Any remaining peptide was removed from the chip with a 30 second injection of HBS-P buffer (Biacore AB, Uppsala, Sweden) at a rate of 30 μl/min. Sensorgrams were generated and analyzed using BiaEval software version 3.1 (Biacore AB, Uppsala, Sweden). The equilibrium RU observed for each injection was plotted against concentration. The equilibrium KD values were derived by analysis of the plots using the steady state affinity model included in the BiaEval software.

In assay [2] the target is T1, soluble human FcRn (shFcRn). Briefly: SPR pH 7.4.
Description: as §1, §2
For assay [3] the target is unchanged. Briefly: SPR pH 6. This is another data set of the same source.
Description: as §1, §2
The target is the same in assay [4]. Description: IgG competition ELISA.
Description: (§3) The wells were coated with 100 μl/well of 1 μg/ml biotinylated-shFcRn in Buffer A. The plate was sealed and incubated at 37° C. for 2 hours. Afterwards, the plate was washed with 200 μl/well of Buffer B (Buffer B: 100 mM MES pH 6, 150 mM NaCl, 0.5% BSA IgG-free (Jackson ImmunoResearch, West Grove, Pa.), 0.05% Tween-20). […] To allow for mixing, the plate was rocked for 2 minutes, sealed and incubated at 37° C. for 2 hours. […] The plate was covered, incubated for 30 minutes at room temperature and washed 4 times with 200 μl/well of ice-cold buffer B. SureBlue TMB substrate solution (100 μl/well, KPL, Gaithersburg, Md.) was added and the plate was allowed to incubate at room temperature until color developed, which took 5 to 10 minutes. Once color developed, 100 μl/well of TMB stop solution (KPL, Gaithersburg, Md.) was added and the absorbance was measured at 450 nm. The data was plotted as absorbance vs. peptide concentration to derive the inhibitory concentration 50% (IC₅₀) values.
Assay [5] has the same target. Briefly: IgG competition ELISA. This is another data set of the same source.
Description: as §3
For assay [6] the target is unchanged. Description: SPR pH 6. The source holds these as a separate data set.
Description: as §1, §2
The target is the same in assay [7]. Description: SPR pH 6. This is another data set of the same source.
Description: as §1, §2
Assay [8] has the same target. Briefly: IgG competition ELISA. The source holds these as a separate data set.
Description: as §3

Where two headings read alike, the source gives them in different places. Bridge positions count the residues as written; N and C are the ends. Square brackets hold non-standard residues; d marks the D form. Ends that are not written are not given here. Phe(F5) = N[C@@H](Cc1c(F)c(F)c(F)c(F)c1F)C(=O)O; Phe(4-NH2) = Nc1ccc(C[C@H](N)C(=O)O)cc1; Phe(3-Me) = Cc1cccc(C[C@H](N)C(=O)O)c1; Phe(4-Me) = Cc1ccc(C[C@H](N)C(=O)O)cc1; NMeL = CN[C@@H](CC(C)C)C(=O)O; Pen = CC(C)(S)[C@H](N)C(=O)O; hCys = N[C@@H](CCS)C(=O)O; Sar = CNCC(=O)O

T1 sequence (P55899 24-297 limits assumed, chain 1 of 2): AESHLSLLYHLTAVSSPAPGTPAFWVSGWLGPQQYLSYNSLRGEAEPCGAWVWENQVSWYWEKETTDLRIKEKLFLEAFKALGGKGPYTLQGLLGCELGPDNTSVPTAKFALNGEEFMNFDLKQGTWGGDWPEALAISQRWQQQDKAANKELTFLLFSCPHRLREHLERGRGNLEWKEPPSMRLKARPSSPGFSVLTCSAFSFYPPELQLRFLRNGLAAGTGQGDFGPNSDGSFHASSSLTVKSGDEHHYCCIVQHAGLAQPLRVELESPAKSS
T1 sequence (P61769 21-119 limits assumed, chain 2 of 2): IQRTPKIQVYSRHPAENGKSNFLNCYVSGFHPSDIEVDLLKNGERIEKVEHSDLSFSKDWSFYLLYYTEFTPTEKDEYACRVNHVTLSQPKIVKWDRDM

B1: Peptide No. 217 (peptide)
peptide: RF[Pen]TGHF[dF][Sar][NMeL]YPC-NH2
modifications: disulfide 3-13; N-terminus assumed
SMILES: CC(C)C[C@H]1C(=O)N[C@@H](Cc2ccc(O)cc2)C(=O)N2CCC[C@H]2C(=O)N[C@H](C(N)=O)CSSC(C)(C)[C@H](NC(=O)[C@H](Cc2ccccc2)NC(=O)[C@@H](N)CCCNC(=N)N)C(=O)N[C@@H]([C@@H](C)O)C(=O)NCC(=O)N[C@@H](Cc2c[nH]cn2)C(=O)N[C@@H](Cc2ccccc2)C(=O)N[C@H](Cc2ccccc2)C(=O)N(C)CC(=O)N1C
With B1, in assay [1], the Kd was 1.4 µM. In other words, the single-digit micromolar range.
QRFCTGHFGXLYPCNGP (Pen 4; Aib (aminoisobutyric acid) 10; disulfide 4-14; C-terminal amide) [Peptide No. 46]: the Kd in assay [2] was determined as 5.3 µM; in assay [3], 0.48 µM. Also, the IC50 in assay [4] amounted to 2.4 µM.

B2: Peptide No. 41 (peptide)
peptide: QRF[Pen]TGHFG[dR]LYPCNGP-NH2
modifications: disulfide 4-14; N-terminus assumed
SMILES: CC(C)C[C@@H]1NC(=O)[C@@H](CCCNC(=N)N)NC(=O)CNC(=O)[C@H](Cc2ccccc2)NC(=O)[C@H](Cc2c[nH]cn2)NC(=O)CNC(=O)[C@H]([C@@H](C)O)NC(=O)[C@@H](NC(=O)[C@H](Cc2ccccc2)NC(=O)[C@H](CCCNC(=N)N)NC(=O)[C@@H](N)CCC(N)=O)C(C)(C)SSC[C@@H](C(=O)N[C@@H](CC(N)=O)C(=O)NCC(=O)N2CCC[C@H]2C(N)=O)NC(=O)[C@@H]2CCCN2C(=O)[C@H](Cc2ccc(O)cc2)NC1=O
As to B2, the values for the Kd in assay [2] and in assay [3] were 8.8 µM and 0.83 µM, respectively. This molecule also returned an IC50 in assay [4] of 8.1 µM.

B3: Peptide No. 47 (peptide)
peptide: QRF[Pen]TGHF[dD]GLYPCNGP-NH2
modifications: disulfide 4-14; N-terminus assumed
SMILES: CC(C)C[C@@H]1NC(=O)CNC(=O)[C@@H](CC(=O)O)NC(=O)[C@H](Cc2ccccc2)NC(=O)[C@H](Cc2c[nH]cn2)NC(=O)CNC(=O)[C@H]([C@@H](C)O)NC(=O)[C@@H](NC(=O)[C@H](Cc2ccccc2)NC(=O)[C@H](CCCNC(=N)N)NC(=O)[C@@H](N)CCC(N)=O)C(C)(C)SSC[C@@H](C(=O)N[C@@H](CC(N)=O)C(=O)NCC(=O)N2CCC[C@H]2C(N)=O)NC(=O)[C@@H]2CCCN2C(=O)[C@H](Cc2ccc(O)cc2)NC1=O
B3: the Kd came out at 4.9 µM in assay [2] and 0.58 µM in assay [3].

B4: Peptide No. 295 (peptide)
peptide: QRF[Pen]TGHFG[dP]LYP[Pen]NGP-NH2
modifications: disulfide 4-14; N-terminus assumed
SMILES: CC(C)C[C@@H]1NC(=O)[C@H]2CCCN2C(=O)CNC(=O)[C@H](Cc2ccccc2)NC(=O)[C@H](Cc2c[nH]cn2)NC(=O)CNC(=O)[C@H]([C@@H](C)O)NC(=O)[C@@H](NC(=O)[C@H](Cc2ccccc2)NC(=O)[C@H](CCCNC(=N)N)NC(=O)[C@@H](N)CCC(N)=O)C(C)(C)SSC(C)(C)[C@@H](C(=O)N[C@@H](CC(N)=O)C(=O)NCC(=O)N2CCC[C@H]2C(N)=O)NC(=O)[C@@H]2CCCN2C(=O)[C@H](Cc2ccc(O)cc2)NC1=O
For B4, in assay [5], the half-maximal inhibitory concentration (IC50) is 1.6 µM. For the same molecule, the Kd in assay [6] came to 0.28 µM.

B5: Peptide No. 43 (peptide)
peptide: QRF[Pen]TGHFG[dI]LYPCNGP-NH2
modifications: disulfide 4-14; N-terminus assumed
SMILES: CC[C@@H](C)[C@H]1NC(=O)CNC(=O)[C@H](Cc2ccccc2)NC(=O)[C@H](Cc2c[nH]cn2)NC(=O)CNC(=O)[C@H]([C@@H](C)O)NC(=O)[C@@H](NC(=O)[C@H](Cc2ccccc2)NC(=O)[C@H](CCCNC(=N)N)NC(=O)[C@@H](N)CCC(N)=O)C(C)(C)SSC[C@@H](C(=O)N[C@@H](CC(N)=O)C(=O)NCC(=O)N2CCC[C@H]2C(N)=O)NC(=O)[C@@H]2CCCN2C(=O)[C@H](Cc2ccc(O)cc2)NC(=O)[C@H](CC(C)C)NC1=O
As to B5, the affinity in assay [2], expressed as Kd, was 41 µM. The molecule further had an IC50 in assay [4] of 18 µM.

B6: Peptide No. 44 (peptide)
peptide: QRF[Pen]TGHFG[dF]LYPCNGP-NH2
modifications: disulfide 4-14; N-terminus assumed
SMILES: CC(C)C[C@@H]1NC(=O)[C@@H](Cc2ccccc2)NC(=O)CNC(=O)[C@H](Cc2ccccc2)NC(=O)[C@H](Cc2c[nH]cn2)NC(=O)CNC(=O)[C@H]([C@@H](C)O)NC(=O)[C@@H](NC(=O)[C@H](Cc2ccccc2)NC(=O)[C@H](CCCNC(=N)N)NC(=O)[C@@H](N)CCC(N)=O)C(C)(C)SSC[C@@H](C(=O)N[C@@H](CC(N)=O)C(=O)NCC(=O)N2CCC[C@H]2C(N)=O)NC(=O)[C@@H]2CCCN2C(=O)[C@H](Cc2ccc(O)cc2)NC1=O
B6: the Kd in assay [2] amounted to 100 µM; in assay [3], 1.7 µM.

B7: Peptide No. 42 (peptide)
peptide: QRF[Pen]TGHFG[dH]LYPCNGP-NH2
modifications: disulfide 4-14; N-terminus assumed
SMILES: CC(C)C[C@@H]1NC(=O)[C@@H](Cc2c[nH]cn2)NC(=O)CNC(=O)[C@H](Cc2ccccc2)NC(=O)[C@H](Cc2c[nH]cn2)NC(=O)CNC(=O)[C@H]([C@@H](C)O)NC(=O)[C@@H](NC(=O)[C@H](Cc2ccccc2)NC(=O)[C@H](CCCNC(=N)N)NC(=O)[C@@H](N)CCC(N)=O)C(C)(C)SSC[C@@H](C(=O)N[C@@H](CC(N)=O)C(=O)NCC(=O)N2CCC[C@H]2C(N)=O)NC(=O)[C@@H]2CCCN2C(=O)[C@H](Cc2ccc(O)cc2)NC1=O
With B7, the Kd was found to be 20 µM in assay [2] and 2 µM in assay [3].
QRFCTGHXGGLYPCNGP (Pen 4; 3-PyridylAla 8; disulfide 4-14; C-terminal amide) [Peptide No. 59] registered a Kd in assay [7] of 19 µM. For the same molecule, the IC50 in assay [8] amounted to 60 µM.

B8: Peptide No. 90 (peptide)
peptide: QRF[Pen]TGH[Phe(4-Me)]GGLYPCNGP-NH2
modifications: disulfide 4-14; N-terminus assumed
SMILES: Cc1ccc(C[C@@H]2NC(=O)[C@H](Cc3c[nH]cn3)NC(=O)CNC(=O)[C@H]([C@@H](C)O)NC(=O)[C@@H](NC(=O)[C@H](Cc3ccccc3)NC(=O)[C@H](CCCNC(=N)N)NC(=O)[C@@H](N)CCC(N)=O)C(C)(C)SSC[C@@H](C(=O)N[C@@H](CC(N)=O)C(=O)NCC(=O)N3CCC[C@H]3C(N)=O)NC(=O)[C@@H]3CCCN3C(=O)[C@H](Cc3ccc(O)cc3)NC(=O)[C@H](CC(C)C)NC(=O)CNC(=O)CNC2=O)cc1
Molecule B8 gave a Kd in assay [7] of 0.2 µM.
In assay [7], QRFCTGHXGGLYPCNGP (Pen 4; 2-napthylalanine 8; disulfide 4-14; C-terminal amide) [Peptide No. 62] came in with a Kd of 11 µM. The molecule also displayed an IC50 in assay [8] of 90 µM.

B9: Peptide No. 55 (peptide)
peptide: QRF[Pen]TGH[Phe(4-NH2)]GGLYPCNGP-NH2
modifications: disulfide 4-14; N-terminus assumed
SMILES: CC(C)C[C@@H]1NC(=O)CNC(=O)CNC(=O)[C@H](Cc2ccc(N)cc2)NC(=O)[C@H](Cc2c[nH]cn2)NC(=O)CNC(=O)[C@H]([C@@H](C)O)NC(=O)[C@@H](NC(=O)[C@H](Cc2ccccc2)NC(=O)[C@H](CCCNC(=N)N)NC(=O)[C@@H](N)CCC(N)=O)C(C)(C)SSC[C@@H](C(=O)N[C@@H](CC(N)=O)C(=O)NCC(=O)N2CCC[C@H]2C(N)=O)NC(=O)[C@@H]2CCCN2C(=O)[C@H](Cc2ccc(O)cc2)NC1=O
Take B9: the Kd in assay [7] was determined as 1 µM.

B10: Peptide No. 57 (peptide)
peptide: QRF[Pen]TGH[Phe(F5)]GGLYPCNGP-NH2
modifications: disulfide 4-14; N-terminus assumed
SMILES: CC(C)C[C@@H]1NC(=O)CNC(=O)CNC(=O)[C@H](Cc2c(F)c(F)c(F)c(F)c2F)NC(=O)[C@H](Cc2c[nH]cn2)NC(=O)CNC(=O)[C@H]([C@@H](C)O)NC(=O)[C@@H](NC(=O)[C@H](Cc2ccccc2)NC(=O)[C@H](CCCNC(=N)N)NC(=O)[C@@H](N)CCC(N)=O)C(C)(C)SSC[C@@H](C(=O)N[C@@H](CC(N)=O)C(=O)NCC(=O)N2CCC[C@H]2C(N)=O)NC(=O)[C@@H]2CCCN2C(=O)[C@H](Cc2ccc(O)cc2)NC1=O
Turning to B10, the Kd in assay [7] turned out to be 70 µM.

B11: Peptide No. 70 (peptide)
peptide: QRF[hCys]TGHFGGLYP[Pen]NGP-NH2
modifications: disulfide 4-14; N-terminus assumed
SMILES: CC(C)C[C@@H]1NC(=O)CNC(=O)CNC(=O)[C@H](Cc2ccccc2)NC(=O)[C@H](Cc2c[nH]cn2)NC(=O)CNC(=O)[C@H]([C@@H](C)O)NC(=O)[C@@H](NC(=O)[C@H](Cc2ccccc2)NC(=O)[C@H](CCCNC(=N)N)NC(=O)[C@@H](N)CCC(N)=O)CCSSC(C)(C)[C@@H](C(=O)N[C@@H](CC(N)=O)C(=O)NCC(=O)N2CCC[C@H]2C(N)=O)NC(=O)[C@@H]2CCCN2C(=O)[C@H](Cc2ccc(O)cc2)NC1=O
In the case of B11, binding in assay [6] was characterised by a dissociation constant (Kd) of 2.1 µM.

B12: Peptide No. 89 (peptide)
peptide: QRF[Pen]TGH[Phe(3-Me)]GGLYPCNGP-NH2
modifications: disulfide 4-14; N-terminus assumed
SMILES: Cc1cccc(C[C@@H]2NC(=O)[C@H](Cc3c[nH]cn3)NC(=O)CNC(=O)[C@H]([C@@H](C)O)NC(=O)[C@@H](NC(=O)[C@H](Cc3ccccc3)NC(=O)[C@H](CCCNC(=N)N)NC(=O)[C@@H](N)CCC(N)=O)C(C)(C)SSC[C@@H](C(=O)N[C@@H](CC(N)=O)C(=O)NCC(=O)N3CCC[C@H]3C(N)=O)NC(=O)[C@@H]3CCCN3C(=O)[C@H](Cc3ccc(O)cc3)NC(=O)[C@H](CC(C)C)NC(=O)CNC(=O)CNC2=O)c1
Take B12: the Kd in assay [7] amounted to 0.67 µM. Further, in assay [8], the IC50 worked out at 4.1 µM.
